From patent US20030171557

Columns and labels:
[1] = test system: GST-IkBα protein [GST: P08515]
Chain of GST-IkBα protein [GST: P08515] (P08515 whole entry, looked up): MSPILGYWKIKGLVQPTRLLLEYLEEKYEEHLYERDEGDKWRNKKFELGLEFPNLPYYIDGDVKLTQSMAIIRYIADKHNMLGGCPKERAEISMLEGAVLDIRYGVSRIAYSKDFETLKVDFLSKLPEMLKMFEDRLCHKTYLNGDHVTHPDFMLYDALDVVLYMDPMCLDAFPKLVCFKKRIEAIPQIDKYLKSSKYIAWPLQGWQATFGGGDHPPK

GST fusion protein with mutant VRK1 protein (Lys 71 replaced by Trp)
kinase assay, phosphorylation of substrate ([γ-32P]-ATP, SDS-PAGE, 10 mM Mg) [1]: no phosphorylation was observed in reactions with mutant VRK1 carrying mutation in the predicted ATP binding site | kinase assay, phosphorylation of substrate ([γ-32P]-ATP, SDS-PAGE, 10 mM Mg) (casein (Sigma)): no phosphorylation was observed in reactions with mutant VRK1 carrying mutation in the predicted ATP binding site
